Measured values: patent US20230038638A1, “COMPLEMENT FACTOR I-RELATED COMPOSITIONS AND METHODS” (published 2023)
Numbering of substitutions follows the chain as printed. Several values for one entry are separate records, joined by “and”; a condition that tells them apart may be missing. Identical values can stand only once.

Legend:
human C4b (human) [1] = biological target: T1, human C4b (human) (UniProt P0C0L4)
T1 sequence: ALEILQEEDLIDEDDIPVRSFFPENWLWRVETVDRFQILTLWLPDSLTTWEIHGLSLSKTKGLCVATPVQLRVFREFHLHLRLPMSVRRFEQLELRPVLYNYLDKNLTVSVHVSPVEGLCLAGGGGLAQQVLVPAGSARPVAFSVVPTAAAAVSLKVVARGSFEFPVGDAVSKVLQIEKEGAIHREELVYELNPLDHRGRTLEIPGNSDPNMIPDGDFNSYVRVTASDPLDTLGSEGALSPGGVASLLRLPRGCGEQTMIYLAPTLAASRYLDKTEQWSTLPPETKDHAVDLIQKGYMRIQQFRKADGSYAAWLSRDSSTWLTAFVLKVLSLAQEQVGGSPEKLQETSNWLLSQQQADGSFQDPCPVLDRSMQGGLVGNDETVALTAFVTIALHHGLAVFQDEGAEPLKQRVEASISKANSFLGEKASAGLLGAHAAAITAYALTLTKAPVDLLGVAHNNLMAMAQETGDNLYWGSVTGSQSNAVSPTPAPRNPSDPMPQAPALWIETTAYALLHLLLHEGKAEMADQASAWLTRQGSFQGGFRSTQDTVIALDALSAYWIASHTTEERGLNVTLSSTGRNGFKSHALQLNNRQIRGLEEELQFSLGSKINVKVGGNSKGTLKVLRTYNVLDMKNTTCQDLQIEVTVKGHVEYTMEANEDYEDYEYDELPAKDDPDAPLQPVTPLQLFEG

[2] = biological target: soluble human C3b (human) (UniProt P01024)
human C4b (human) [3] = biological target: T1, human C4b (human); remark: listed apart in the source
human C4b (human) [4] = biological target: T2, human C4b (human) (UniProt P0C0L5)
T2 sequence: T1 sequence with A151T, D317G, P364L, C365S, L368I, D369H, N420S, V451A, L454R, S530A

## CFI-HSA variant E416A; E457G; E461Q; F464Y; N531G (enzyme)
Human C4b (human) [1]
  C4b Screen Ref Fold (fold of CFI-HSA wild type): 4.74
[2]
  iC3b Screen Ref Fold (fold of CFI-HSA wild type): 1.79
Human C4b (human) [3]
  C4c EC50 (nM): 12 nM

## CFI-HSA variant E457G; E461Q; E530F; N531G; P558S (enzyme)
Human C4b (human) [1]
  C4b Screen Ref Fold (fold of CFI-HSA wild type): 4.57 and 4.37
[2]
  iC3b Screen Ref Fold (fold of CFI-HSA wild type): 1.37 and 1.5
Human C4b (human) [3]
  C4c EC50 (nM): 17.8 nM

## CFI-HSA variant E457G; E461Q; F464Y; E530Y; N531G; P558S (enzyme)
Human C4b (human) [1]
  C4b Screen Ref Fold (fold of CFI-HSA wild type): 4.03
[2]
  iC3b Screen Ref Fold (fold of CFI-HSA wild type): 2.44
Human C4b (human) [3]
  C4c EC50 (nM): 32.4 nM

## CFI-HSA variant E457G; E461Q; F464Y; N531G; R557K (enzyme)
Human C4b (human) [1]
  C4b Screen Ref Fold (fold of CFI-HSA wild type): 4.54
[2]
  iC3b Screen Ref Fold (fold of CFI-HSA wild type): 2.17
Human C4b (human) [3]
  C4c EC50 (nM): 10.6 nM

## CFI-HSA variant E457G; E461Q; K504H; N531G (enzyme)
Human C4b (human) [1]
  C4b Screen Ref Fold (fold of CFI-HSA wild type): 3.91
[2]
  iC3b Screen Ref Fold (fold of CFI-HSA wild type): 1.2
Human C4b (human) [3]
  C4c EC50 (nM): 39 nM

## CFI-HSA variant E457G; E461Q; R462K; F464Y; E530Y; N531G; P558S (enzyme)
Human C4b (human) [1]
  C4b Screen Ref Fold (fold of CFI-HSA wild type): 4.51
[2]
  iC3b Screen Ref Fold (fold of CFI-HSA wild type): 2.69
Human C4b (human) [3]
  C4c EC50 (nM): 30 nM

## CFI-HSA variant E457G; E461Q; R462K; F464Y; K504H; N531G (enzyme)
Human C4b (human) [1]
  C4b Screen Ref Fold (fold of CFI-HSA wild type): 4.01
[2]
  iC3b Screen Ref Fold (fold of CFI-HSA wild type): 2
Human C4b (human) [3]
  C4c EC50 (nM): 51.7 nM

## CFI-HSA variant E457G; E461Q; R462K; F464Y; N531G; R557K (enzyme)
Human C4b (human) [1]
  C4b Screen Ref Fold (fold of CFI-HSA wild type): 4.47
[2]
  iC3b Screen Ref Fold (fold of CFI-HSA wild type): 1.49
Human C4b (human) [3]
  C4c EC50 (nM): 12.4 nM

## CFI-HSA variant E457P (enzyme)
Human C4b (human) [1]
  C4b Screen Ref Fold (fold of reference): 0.01
[2]
  iC3b Screen Ref Fold (fold of reference): 0.07
Human C4b (human) [3]
  C4c EC50 (nM): > 1000 nM

## CFI-HSA variant E461T (enzyme)
Human C4b (human) [1]
  C4b Screen Ref Fold (fold of reference): 3.24
[2]
  iC3b Screen Ref Fold (fold of reference): 1.53
Human C4b (human) [3]
  C4c EC50 (nM): 125 nM

## CFI-HSA variant G406D; N531G (enzyme)
Human C4b (human) [1]
  C4b Screen Ref Fold (fold of reference): 6.15
[2]
  iC3b Screen Ref Fold (fold of reference): 0.83
Human C4b (human) [3]
  C4c EC50: 124 nM

## CFI-HSA variant G406D; N531G; P535A (enzyme)
Human C4b (human) [1]
  C4b Screen Ref Fold (fold of reference): 5.98
[2]
  iC3b Screen Ref Fold (fold of reference): 0.88
Human C4b (human) [3]
  C4c EC50: 129 nM

## CFI-HSA variant G406D; Y408L; N531G (enzyme)
Human C4b (human) [1]
  C4b Screen Ref Fold (fold of reference): 5.16
[2]
  iC3b Screen Ref Fold (fold of reference): 0.93
Human C4b (human) [3]
  C4c EC50: 178 nM

## CFI-HSA variant G406D; Y408L; N531G; P535A (enzyme)
Human C4b (human) [1]
  C4b Screen Ref Fold (fold of reference): 5.44
[2]
  iC3b Screen Ref Fold (fold of reference): 0.96
Human C4b (human) [3]
  C4c EC50: 102 nM

## CFI-HSA variant G406K (enzyme)
Human C4b (human) [1]
  C4b Screen Ref Fold (fold of reference): 0.77
[2]
  iC3b Screen Ref Fold (fold of reference): 1.28
Human C4b (human) [3]
  C4c EC50: 183 nM

## CFI-HSA variant K14A; Y20F; D26A; R35A; E38A; L304G; P305G; K306G; L307G; S308G (enzyme)
Human C4b (human) [1]
  C4b Screen Ref Fold (fold of reference): 4.19
[2]
  iC3b Screen Ref Fold (fold of reference): 0.04
Human C4b (human) [3]
  C4c EC50 (nM): > 1000 nM

## CFI-HSA variant N531D (enzyme)
Human C4b (human) [1]
  C4b Screen Ref Fold (fold of reference): 4.91
[2]
  iC3b Screen Ref Fold (fold of reference): 1.52
Human C4b (human) [3]
  C4c EC50 (nM): 77.2 nM

## CFI-HSA variant N531F (enzyme)
Human C4b (human) [1]
  C4b Screen Ref Fold (fold of reference): 1.98
[2]
  iC3b Screen Ref Fold (fold of reference): 1.09
Human C4b (human) [3]
  C4c EC50 (nM): 183 nM

## CFI-HSA variant N531Q (enzyme)
Human C4b (human) [1]
  C4b Screen Ref Fold (fold of reference): 3.46
[2]
  iC3b Screen Ref Fold (fold of reference): 0.69
Human C4b (human) [3]
  C4c EC50 (nM): 310 nM

## CFI-HSA variant N531S (enzyme)
Human C4b (human) [1]
  C4b Screen Ref Fold (fold of reference): 2.21
[2]
  iC3b Screen Ref Fold (fold of reference): 1.16
Human C4b (human) [3]
  C4c EC50 (nM): 176 nM

## CFI-HSA variant T346R; Y408L; N531G (enzyme)
Human C4b (human) [1]
  C4b Screen Ref Fold (fold of reference): 3.42
[2]
  iC3b Screen Ref Fold (fold of reference): 0.93
Human C4b (human) [3]
  C4c EC50: 204 nM

## CFI-HSA variant Y408F; E416A; E457G; E461Q; R462K; N531G (enzyme)
Human C4b (human) [1]
  C4b Screen Ref Fold (fold of CFI-HSA wild type): 4.51
[2]
  iC3b Screen Ref Fold (fold of CFI-HSA wild type): 1.99
Human C4b (human) [3]
  C4c EC50 (nM): 11.5 nM

## CFI-HSA variant Y408F; E457G; E461Q; F464Y; N531G (enzyme)
Human C4b (human) [1]
  C4b Screen Ref Fold (fold of CFI-HSA wild type): 4.43
[2]
  iC3b Screen Ref Fold (fold of CFI-HSA wild type): 1.81
Human C4b (human) [3]
  C4c EC50 (nM): 15.1 nM

## CFI-HSA variant Y408F; E457G; E461Q; N531G (enzyme)
Human C4b (human) [1]
  C4b Screen Ref Fold (fold of CFI-HSA wild type): 4.63
[2]
  iC3b Screen Ref Fold (fold of CFI-HSA wild type): 1.42
Human C4b (human) [3]
  C4c EC50 (nM): 51 nM

## CFI-HSA variant Y408F; E457G; E461Q; R462K; F464Y; N531G (enzyme)
Human C4b (human) [1]
  C4b Screen Ref Fold (fold of CFI-HSA wild type): 4.57
[2]
  iC3b Screen Ref Fold (fold of CFI-HSA wild type): 1.87
Human C4b (human) [3]
  C4c EC50 (nM): 13.2 nM

## CFI-HSA variant Y408F; E457G; E461Q; R462K; N531G (enzyme)
Human C4b (human) [1]
  C4b Screen Ref Fold (fold of CFI-HSA wild type): 4.58
[2]
  iC3b Screen Ref Fold (fold of CFI-HSA wild type): 1.9
Human C4b (human) [3]
  C4c EC50 (nM): 14.4 nM

## CFI-HSA variant Y408L; E416A; E457G; E461Q; R462K; N531G (enzyme)
Human C4b (human) [1]
  C4b Screen Ref Fold (fold of CFI-HSA wild type): 4.04
[2]
  iC3b Screen Ref Fold (fold of CFI-HSA wild type): 1.63
Human C4b (human) [3]
  C4c EC50 (nM): 17.8 nM

## CFI-HSA variant Y408L; E457G; E461Q; R462K; E530F; N531G; P558S (enzyme)
Human C4b (human) [1]
  C4b Screen Ref Fold (fold of CFI-HSA wild type): 3.96
[2]
  iC3b Screen Ref Fold (fold of CFI-HSA wild type): 1.81
Human C4b (human) [3]
  C4c EC50 (nM): 148 nM

## CFI-HSA variant Y408L; E457G; E461Q; R462K; E530Y; N531G; P558S (enzyme)
Human C4b (human) [1]
  C4b Screen Ref Fold (fold of CFI-HSA wild type): 4.18
[2]
  iC3b Screen Ref Fold (fold of CFI-HSA wild type): 2.06
Human C4b (human) [3]
  C4c EC50 (nM): 27.3 nM

## CFI-HSA variant Y408L; N531G; P535G; D425K (enzyme)
Human C4b (human) [4]
  C4b Screen Ref Fold (fold of CFI-HSA wild type): 2.94
[2]
  iC3b Screen Ref Fold (fold of CFI-HSA wild type): 1.38
Human C4b (human) [3]
  C4c EC50: 65.4 nM

## CFI-HSA variant Y408L; N531G; P558S (enzyme)
Human C4b (human) [4]
  C4b Screen Ref Fold (fold of CFI-HSA wild type): 5.11
[2]
  iC3b Screen Ref Fold (fold of CFI-HSA wild type): 1.05
Human C4b (human) [3]
  C4c EC50: 77.5 nM

## CFI-HSA variant Y408P (enzyme)
Human C4b (human) [4]
  C4b Screen Ref Fold (fold vs CFI-HSA wild type): -0.01
[2]
  iC3b Screen Ref Fold (fold vs CFI-HSA wild type): 0.02
Human C4b (human) [3]
  C4c EC50 (nM): 338 nM

## CFI-HSA variant Y553H (enzyme)
Human C4b (human) [4]
  C4b Screen Ref Fold (fold of CFI-HSA wild type): 4.13
[2]
  iC3b Screen Ref Fold (fold of CFI-HSA wild type): 0.52
Human C4b (human) [3]
  C4c EC50: 85.5 nM
  C4c EC50 (nM): 166 nM

## CFI-HSA variant Y553H; P558S (enzyme)
Human C4b (human) [4]
  C4b Screen Ref Fold (fold of CFI-HSA wild type): 2.14
[2]
  iC3b Screen Ref Fold (fold of CFI-HSA wild type): 0.63
Human C4b (human) [3]
  C4c EC50: 122 nM

## WT; GGSSGG (SEQ ID NO: 6); CR1(ccp15-17); GGSSGG (SEQ ID NO: 6); fH(ccp1-4) (enzyme)
Human C4b (human) [4]
  C4b Screen Ref Fold (fold vs CFI-HSA wild type): 2.96
[2]
  iC3b Screen Ref Fold (fold vs CFI-HSA wild type): 0.08
Human C4b (human) [3]
  C4c EC50 (nM): 60.3 nM
